Experimental findings from paper PMC12059018 (Nature Communications, 2025) are described below.

The assay has as its target T1, p53-ZF43 bait (UniProt P04637).
T1 construct: also called p53 bait; source: BHK-21, transfected, in cells
Put plainly: two-hybrid. The conditions noted are these: partners not purified.

T1 sequence (P04637 whole entry): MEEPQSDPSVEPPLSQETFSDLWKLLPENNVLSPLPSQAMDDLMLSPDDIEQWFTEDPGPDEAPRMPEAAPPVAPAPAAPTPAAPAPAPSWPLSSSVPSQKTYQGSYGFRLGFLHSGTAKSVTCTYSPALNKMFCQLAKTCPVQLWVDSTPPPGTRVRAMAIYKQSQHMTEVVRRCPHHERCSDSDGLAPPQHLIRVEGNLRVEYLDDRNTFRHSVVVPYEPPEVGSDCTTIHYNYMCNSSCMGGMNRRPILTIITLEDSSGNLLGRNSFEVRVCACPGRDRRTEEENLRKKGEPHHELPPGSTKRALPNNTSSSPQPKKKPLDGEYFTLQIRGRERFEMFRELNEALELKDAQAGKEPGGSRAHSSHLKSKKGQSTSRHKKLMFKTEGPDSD

B1: Nb139-VP64 (parental, NLS-containing fusion) (VHH)
VHH: QVQLQESGGGLVQAGGSLRLSCAASERTFSTYAMGWFRQAPGREREFLAQINWSGTTTYYAESVKDRTTISRDNAKNTVYLEMNNLNADDTGIYFCAAHPQRGWGSTLGWTYWGQGTQVTVSS
notes: also called Nb139[WT]; source: BHK-21, transfected, in cells
On to B1, for which the binding result is “binds”.
